Target: dopamine D1 receptor (D1R) (UniProt P21728 1-446)
Test: cell-based or functional assay

Chain of dopamine D1 receptor (D1R) (P21728 whole entry): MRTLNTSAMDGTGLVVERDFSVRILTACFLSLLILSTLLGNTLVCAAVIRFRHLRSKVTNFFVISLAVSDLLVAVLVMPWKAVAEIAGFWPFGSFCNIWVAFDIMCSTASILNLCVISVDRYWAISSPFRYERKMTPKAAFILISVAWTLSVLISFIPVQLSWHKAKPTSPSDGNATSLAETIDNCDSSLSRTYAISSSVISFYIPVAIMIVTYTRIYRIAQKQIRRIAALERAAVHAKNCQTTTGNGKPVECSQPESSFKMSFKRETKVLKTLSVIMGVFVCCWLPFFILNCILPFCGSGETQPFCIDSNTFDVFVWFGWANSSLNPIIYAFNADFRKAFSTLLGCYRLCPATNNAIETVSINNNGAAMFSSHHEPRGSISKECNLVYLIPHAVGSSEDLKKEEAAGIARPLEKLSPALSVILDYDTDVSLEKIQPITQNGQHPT

ghrelin-induced cAMP accumulation in HEK293T cells with GHS-R1a, D1R and increasing GHS-R1b cDNA; increase versus control at GHS-R1b/GHS-R1a cDNA ratios of 0, 0.3, 1 and 2 (26%, 72%, 46% and 15%): 72 % increase versus control
B1: GHS-R1a fused to GFP2 (GHS-R1a-GFP2) (receptor, human, UniProt Q92847-1 1-366, looked up)
chain: MWNATPSEEPGFNLTLADLDWDASPGNDSLGDELLQLFPAPLLAGVTATCVALFVVGIAGNLLTMLVVSRFRELRTTTNLYLSSMAFSDLLIFLCMPLDLVRLWQYRPWNFGDLLCKLFQFVSESCTYATVLTITALSVERYFAICFPLRAKVVVTKGRVKLVIFVIWAVAFCSAGPIFVLVGVEHENGTDPWDTNECRPTEFAVRSGLLTVMVWVSSIFFFLPVFCLTVLYSLIGRKLWRRRRGDAVVGASLRDQNHKQTVKMLAVVVFAFILCWLPFHVGRYLFSKSFEPGSLEIAQISQYCNLVSFVLFYLSAAINPILYNIMSKKYRVAVFRLLGFEPFSQRKLSTLKDESSRAWTESSINT

— paper PMC8824505, “Complexes of Ghrelin GHS-R1a, GHS-R1b, and Dopamine D1 Receptors Localized in the Ventral Tegmental Area as Main Mediators of the Dopaminergic Effects of Ghrelin” (The Journal of Neuroscience, 2022)
